According to PMC11249846 (Protein Science : A Publication of the Protein Society, 2024):

Target: Hsc70‐T204A (human, UniProt P11142 1-646, T204A)
Experiment: NMR titration

Hsc70‐T204A, sequence (P11142 whole entry T204A): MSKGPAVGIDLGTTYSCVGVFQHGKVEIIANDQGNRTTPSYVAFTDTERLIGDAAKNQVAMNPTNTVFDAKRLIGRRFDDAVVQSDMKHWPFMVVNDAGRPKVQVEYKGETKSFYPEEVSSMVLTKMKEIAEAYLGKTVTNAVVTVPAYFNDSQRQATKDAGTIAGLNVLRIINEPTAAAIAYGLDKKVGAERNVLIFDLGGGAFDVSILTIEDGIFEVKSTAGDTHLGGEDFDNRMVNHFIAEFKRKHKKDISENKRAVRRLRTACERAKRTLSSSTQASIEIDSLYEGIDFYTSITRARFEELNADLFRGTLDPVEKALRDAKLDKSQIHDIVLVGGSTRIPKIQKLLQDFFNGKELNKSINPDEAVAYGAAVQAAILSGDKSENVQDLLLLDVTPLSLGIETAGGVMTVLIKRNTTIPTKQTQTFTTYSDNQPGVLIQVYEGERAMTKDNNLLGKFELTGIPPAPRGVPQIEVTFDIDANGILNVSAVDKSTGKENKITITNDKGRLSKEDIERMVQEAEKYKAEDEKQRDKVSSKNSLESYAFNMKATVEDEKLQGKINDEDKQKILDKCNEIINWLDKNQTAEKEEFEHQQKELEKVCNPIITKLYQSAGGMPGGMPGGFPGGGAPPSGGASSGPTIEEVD

B1: wt (JD‐G/FR) (domain or fragment)
chain: not shown
B1: binds.
